Values of other authors, collected in publication PMC5274714.

Molecular target: human serum albumin (Homo sapiens) (UniProt P02768)
Assay: SPR

Substance: protein G ABD3 (from UniProt P19909)
- Kd: 4 nM
